Measured values as given in paper PMC3874172 (Nucleic Acids Research, 2013).

Columns and labels:
GST-ETO [1] = target: GST-ETO (UniProt Q06455); experiment: pull-down
GST-ETO [2] = target: T1, GST-ETO (UniProt Q06455-2 1-577); experiment: pull-down
T1 sequence (looked up): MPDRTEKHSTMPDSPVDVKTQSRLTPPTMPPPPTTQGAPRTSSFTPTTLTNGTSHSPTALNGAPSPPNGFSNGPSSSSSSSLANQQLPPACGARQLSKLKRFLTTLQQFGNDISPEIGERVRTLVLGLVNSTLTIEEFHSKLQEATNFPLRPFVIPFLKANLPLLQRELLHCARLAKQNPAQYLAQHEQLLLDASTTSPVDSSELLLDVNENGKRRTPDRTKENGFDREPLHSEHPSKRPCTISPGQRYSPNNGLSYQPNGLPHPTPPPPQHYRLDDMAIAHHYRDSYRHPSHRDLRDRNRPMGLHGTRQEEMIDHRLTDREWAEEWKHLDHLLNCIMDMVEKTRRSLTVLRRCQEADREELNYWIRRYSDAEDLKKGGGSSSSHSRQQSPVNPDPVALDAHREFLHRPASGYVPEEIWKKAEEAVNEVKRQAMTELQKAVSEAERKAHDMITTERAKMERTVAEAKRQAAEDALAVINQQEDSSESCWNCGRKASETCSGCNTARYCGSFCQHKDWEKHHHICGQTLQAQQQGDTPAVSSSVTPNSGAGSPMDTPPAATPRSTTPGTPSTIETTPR

Molecule: isolated DES domain of E2A, in vitro translated Gal4-DBD fusion (domain or fragment)
- fold reduction of binding relative to E2A-AD (GST-ETO [1]): 4 fold

B1: E2A-AD1 (amino acids 1-90), in vitro translated (domain or fragment, UniProt P15923 1-90, looked up)
chain: MNQPQRMAPVGTDKELSDLLDFSMMFPLPVTNGKGRPASLAGAQFGGSGLEDRPSSGSWGSGDQSSSSFDPSRTFSEGTHFTESHSSLSS
modifications: 35S label
- fold reduction of binding relative to E2A-AD (GST-ETO [2]): ~24 fold
